Each block holds one molecule with its values, some of them ahead of it.
Columns and labels:
[1] = target: HLA-A*02:01 restricted NY-ESO-1 C9V peptide (…) pMHC (human); experiment: transduced PBMCs loaded on pMHC-labeled nanovials (20 µg/ml pMHC), anti-NGFR staining, flow cytometry
[2] = target: HLA-A*02:01 restricted NY-ESO-1 C9V peptide (…) pMHC (human); experiment: transduced PBMCs loaded on pMHC-labeled nanovials (20 µg/ml pMHC), flow cytometry
[3] = target: T1, SCAMP3 (secretory carrier-associated membrane protein 3), cancer-enhanced splicing epitope peptide on … (human); experiment: multimer staining
T1 peptide: STMYYLWML

[4] = target: T2, MEAF6 (MYST/Esa1 associated factor 6) splicing variant peptide on HLA-A*02:01 (human); experiment: multimer staining
T2 peptide: SGMFDYDFEYV

B2: NVTCR21 (TCR, V domains shown)
Valpha: AQSVAQPEDQVNVAEGNPLTVKCTYSVSGNPYLFWYVQYPNRGLQFLLKYITGDNLVKGSYGFEAEFNKSQTSFHLKKPSALVSDSALYFCAVRDTPSGSARQLTFGSGTQLTVLP
Vbeta: GAGVSQTPSNKVTEKGKYVELRCDPISGHTALYWYRQSLGQGPEFLIYFQGTGAADDSGLPNDRFFAVRPEGSVSTLKIQRTERGDSAVYLCASSLTSSGGGPYNEQFFGPGTRLTVL
- binding result [4]: recognises

B3: NVTCR11 (TCR, V domains shown)
Valpha: GIQVEQSPPDLILQEGANSTLRCNFSDSVNNLQWFHQNPWGQLINLFYIPSGTKQNGRLSATTVATERYSLLYISSSQTTDSGVYFCAVDLNDYKLSFGAGTTVTVRA
Vbeta: NAGVTQTPKFRVLKTGQSMTLLCAQDMNHEYMYWYRQDPGMGLRLIHYSVGEGTTAKGEVPDGYNVSRLKKQNFLLGLESAAPSQTSVYFCASSSHGSTGELFFGEGSRLTVL
- binding result [3]: recognises

Now from value to molecule:

- fraction of nanovial-bound live cells with NGFR expression [1]: 93.9%
- fraction of nanovials occupied by live cells [2]: 17%
Molecule: 1G4 TCR

- binding result [3]: recognises
B1: NVTCR19 (TCR, V domains shown)
Valpha: KQEVTQIPAALSVPEGENLVLNCSFTDSAIYNLQWFRQDPGKGLTSLLLIQSSQREQTSGRLNASLDKSSGRSTLYIAASQPGDSATYLCAVTSGGSYIPTFGRGTSLIVHP
Vbeta: DGGITQSPKYLFRKEGQNVTLSCEQNLNHDAMYWYRQDPGQGLRLIYYSQIVNDFQKGDIAEGYSVSREKKESFPLTVTSAQKNPTAFYLCASSDPFRSGTDSPLHFGNGTRLTVT

Reference: US20260027153A1 (published 2026)
